Measured values reported in the supplement of paper PMC10567573.

B1: CHMP4C (parent)
chain: SSKSRAAPSPQEALVRLRETEEML

Variants of: B1
Test: protein stability index of a GFP-peptide fusion (GPS, HEK-293T) (PSI 1-6); higher = more stable
Conditions: c terminus: a fixed tail appended
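Note: lentivirally expressed fusions sorted by FACS into six bins by GFP to DsRed ratio, PSI derived from sequencing read proportions per bin multiplied by bin number.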

Variant	protein stability index
SSKSRAAPSPQEWLVRLRETEEML [A13W]	3.33
SSKSRAAPSPQEQLVRLRETEEML [A13Q]	4.8
SSKSRAAPSPQEDLVRLRETEEML [A13D]	5.58
SSKSRAAPSPQEHLVRLRETEEML [A13H]	3.99
SSKSRAAPSPQECLVRLRETEEML [A13C]	1.82
SSKSRAAPSPQEKLVRLRETEEML [A13K]	4.47
SSKSRAAPSPQEGLVRLRETEEML [A13G]	3.34
SSKSRAAPSPQEYLVRLRETEEML [A13Y]	2.3
SSKSRAAPSPQELLVRLRETEEML [A13L]	2.06
SSKSRAVPSPQEALVRLRETEEML [A7V]	2.56
SSKSRAQPSPQEALVRLRETEEML [A7Q]	2.32
SSKSRAMPSPQEALVRLRETEEML [A7M]	3.21
SSKSRATPSPQEALVRLRETEEML [A7T]	4.48
SSKSRAPPSPQEALVRLRETEEML [A7P]	1.03
SSKSRAKPSPQEALVRLRETEEML [A7K]	1.45
SSKSRAAPVPQEALVRLRETEEML [S9V]	3.85
SSKSRAAPAPQEALVRLRETEEML [S9A]	2.38
SSKSRAAPDPQEALVRLRETEEML [S9D]	1.51
SSKSRAAPIPQEALVRLRETEEML [S9I]	3.22
SSKSRAAPTPQEALVRLRETEEML [S9T]	1.94
SSKSRAAPRPQEALVRLRETEEML [S9R]	3.19
SSKSRAAPCPQEALVRLRETEEML [S9C]	1.54
SSKSRRAPSPQEALVRLRETEEML [A6R]	1.96
SSKSRNAPSPQEALVRLRETEEML [A6N]	1.61

Variant	protein stability index
SSKSRFAPSPQEALVRLRETEEML [A6F]	2.83
SSKSRIAPSPQEALVRLRETEEML [A6I]	2.15
SSKSRHAPSPQEALVRLRETEEML [A6H]	1.28
SSKSRYAPSPQEALVRLRETEEML [A6Y]	4.65
SSKSRKAPSPQEALVRLRETEEML [A6K]	1.8
SSKSRDAPSPQEALVRLRETEEML [A6D]	1.81
SSKSRAAPSPQEALVRHRETEEML [L17H]	4.79
SSKSRAAPSPQEALVRTRETEEML [L17T]	5.6
SSKSRAAPSPQEALVRARETEEML [L17A]	4.71
SSKSRAAPSPQEALVRRRETEEML [L17R]	5.53
SSKSRAAPSPQEALVRGRETEEML [L17G]	5.31
SSKSRAAPSPQEALVRERETEEML [L17E]	5.68
SSKSRAAPSPQEALVRNRETEEML [L17N]	4.59
SSKSRAAPSPQEALVRYRETEEML [L17Y]	4.4
SSKSRAAPSPQEALVRSRETEEML [L17S]	5.01
SSKSRAAPSPQEALVRIRETEEML [L17I]	1.76
SSKSRAAPSPQEALVRFRETEEML [L17F]	4.28
SSKSRAAPSPQEALVRLRETGEML [E21G]	3.63
SSKSRAAPSPQEALVRLRETIEML [E21I]	2.83
SSKSRAAPSPQEALVRLRETDEML [E21D]	4
SSKSRAAPSPQEALVRLRETNEML [E21N]	4.49
SSKSRAAPSPQEALVRLRETFEML [E21F]	3.21
SSKSRAAPSPQEALVRLRETYEML [E21Y]	2.3
SSKSRAAPSPQEALVRLRETMEML [E21M]	4.23

Variant	protein stability index
SSKSRAAPSPQEALVRLRETWEML [E21W]	2.39
SSKSRAAPSPQEALVRLRETAEML [E21A]	4.28
SSKSRAAPSPQEALVRLRETQEML [E21Q]	3.95
SSKSRAAPSPQEALVRLRETSEML [E21S]	4.09
SSKSRAAPSPQEALVRLRETTEML [E21T]	2.81
SSKSRAAPSPFEALVRLRETEEML [Q11F]	1.01
SSKSRAAPSPKEALVRLRETEEML [Q11K]	1.9
SSKSRAAPSPPEALVRLRETEEML [Q11P]	3.7
SSKSRAAPSPTEALVRLRETEEML [Q11T]	1.16
SSKSRAAPSPCEALVRLRETEEML [Q11C]	1.78
SSKSRAAPSPVEALVRLRETEEML [Q11V]	3.06
SSKSRAAPSPAEALVRLRETEEML [Q11A]	2.68
SSASRAAPSPQEALVRLRETEEML [K3A]	1.97
SSTSRAAPSPQEALVRLRETEEML [K3T]	1.79
SSWSRAAPSPQEALVRLRETEEML [K3W]	1.74
SSDSRAAPSPQEALVRLRETEEML [K3D]	3.17
SSKSRAAPSPQEALVRLRRTEEML [E19R]	3.52
SSKSRAAPSPQEALVRLRNTEEML [E19N]	2.27
SSKSRAAPSPQEALVRLRCTEEML [E19C]	2.66
SSKSRAAPSPQEALVRLRHTEEML [E19H]	2.9
SSKSRAAPSPQEALVRLRSTEEML [E19S]	3.01
SSKSRAAPSPQEALVRLRYTEEML [E19Y]	1.97
SSKSRAAPSPQEALVRLRWTEEML [E19W]	2.36
SSKSRAAPSPQEALVRLRQTEEML [E19Q]	1

Variant	protein stability index
SSKSRAAPSPQEALVRLRKTEEML [E19K]	3.19
SSKSRAAPSPQEALVRLRATEEML [E19A]	2.6
SSKSRAAPSPQEALVRLRITEEML [E19I]	4.1
SSKSRAAPSPQEALVRLRGTEEML [E19G]	2.44
SSKSRAAPSPQEALVRLRPTEEML [E19P]	4.63
SSKSRAAPSPQEALVRLREVEEML [T20V]	3.14
SSKSRAAPSPQEALVRLREQEEML [T20Q]	4.83
SSKSRAAPSPQEALVRLREDEEML [T20D]	2.08
SSKSRAAPSPQEALVRLRECEEML [T20C]	4.19
SSKSRAAPSPQEALVRLREIEEML [T20I]	3.27
SSKSRAAPSPQEALVRLREWEEML [T20W]	3.45
SSKSRAAPSPQEALVRLREPEEML [T20P]	5.12
SSKSRAAPSPQEALDRLRETEEML [V15D]	1.85
SSKSRAAPSPQEALPRLRETEEML [V15P]	4.34
SSKSRAAPSPQEALKRLRETEEML [V15K]	2.48
SSKSRAAPSPQEALMRLRETEEML [V15M]	2.17
SSKSRAAPSPQEALSRLRETEEML [V15S]	2.18
SSKSRAAPSPQEALQRLRETEEML [V15Q]	3.07
SSKSRAAPSPQEALVQLRETEEML [R16Q]	2.49
SSKSRAAPSPQEALVWLRETEEML [R16W]	2.45
SSKSRAAPSPQEALVDLRETEEML [R16D]	1.98
SSKSRAAPSPQEALVGLRETEEML [R16G]	3.79
SSKSRAAPSPQEALVHLRETEEML [R16H]	1.63
SSKSRAAPSPQEALVYLRETEEML [R16Y]	2.22

Variant	protein stability index
SSKSRAAPSPQEALVELRETEEML [R16E]	2.24
SSKSRAAPSPQEALVTLRETEEML [R16T]	4.39
SSKSRAAPSPQEALVRLRETEEAL [M23A]	2.07
SSKSRAAPSPQEALVRLRETEEFL [M23F]	2.24
SSKSRAAPSPQEALVRLRETEEHL [M23H]	4.34
SSKSRAAPSPQEALVRLRETEETL [M23T]	3.55
SSKSRAAPSPQEALVRLRETEEKL [M23K]	2.15
SSKSRAAPSPQEALVRLRETEEEL [M23E]	2.08
SSKSRAAPSPQEALVRLRETEEPL [M23P]	4.44
SSKSRAAPSPQEALVRLRETEESL [M23S]	3.95
SSKSRAAPSPQEALVRLRETEEQL [M23Q]	2.38
SSKSRAAPSPQEALVRLRETEEDL [M23D]	4.26
SSKSRAAPSPQHALVRLRETEEML [E12H]	3.06
SSKSRAAPSPQMALVRLRETEEML [E12M]	2.05
SSKSRAAPSPQFALVRLRETEEML [E12F]	2.75
SSKSRAAPSPQSALVRLRETEEML [E12S]	2.06
SSKSRAAPSPQLALVRLRETEEML [E12L]	3.27
SSKSRAAPSPQWALVRLRETEEML [E12W]	2.67
SSKSRAAPSPQCALVRLRETEEML [E12C]	2.96
SSKSRAAPSPQVALVRLRETEEML [E12V]	2.81
SSKSRAAPSPQKALVRLRETEEML [E12K]	4.3
SSKSRAAPSPQGALVRLRETEEML [E12G]	2.23
SSKSRAAPSHQEALVRLRETEEML [P10H]	4.21
SSKSRAAPSRQEALVRLRETEEML [P10R]	4.01

Variant	protein stability index
SSKSRAAPSCQEALVRLRETEEML [P10C]	3.05
SSKSRAAPSYQEALVRLRETEEML [P10Y]	2.99
SSKSRAAPSVQEALVRLRETEEML [P10V]	1.81
SSKSRAAPSEQEALVRLRETEEML [P10E]	3.41
SSKSRAAPSTQEALVRLRETEEML [P10T]	4.26
SSKSRAAPSWQEALVRLRETEEML [P10W]	1.67
SSKSRAAPSNQEALVRLRETEEML [P10N]	4.79
SSKSRAAPSSQEALVRLRETEEML [P10S]	3.85
SSKSRAAPSKQEALVRLRETEEML [P10K]	4.6
SSKSRAAPSQQEALVRLRETEEML [P10Q]	4.58
SSKSRAAPSPQEACVRLRETEEML [L14C]	2.06
SSKSRAAPSPQEAPVRLRETEEML [L14P]	5.2
SSKSRAAPSPQEAHVRLRETEEML [L14H]	4.46
SSKSRAAPSPQEAYVRLRETEEML [L14Y]	2.49
SSKSRAAPSPQEAVVRLRETEEML [L14V]	3
SSKSRAAPSPQEASVRLRETEEML [L14S]	4.33
SSKSRAAPSPQEAFVRLRETEEML [L14F]	4.77
SSKSRAAPSPQEATVRLRETEEML [L14T]	4.6
SSKSRAAPSPQEAWVRLRETEEML [L14W]	1.42
SSKSRAAPSPQEAMVRLRETEEML [L14M]	2.41
SSKSRAAPSPQEAKVRLRETEEML [L14K]	4.46
SSKSRAAPSPQEADVRLRETEEML [L14D]	4.96
SSKSRAAPSPQEAIVRLRETEEML [L14I]	2.32
SSKSRAAPSPQEARVRLRETEEML [L14R]	2.92

Variant	protein stability index
SSKSRAAPSPQEAAVRLRETEEML [L14A]	3.39
SSKDRAAPSPQEALVRLRETEEML [S4D]	1.4
SSKTRAAPSPQEALVRLRETEEML [S4T]	2.58
SSKSRAAPSPQEALVRLRETETML [E22T]	3.01
SSKSRAAPSPQEALVRLRETEFML [E22F]	2.05
SSKSRAAPSPQEALVRLRETEMML [E22M]	1.82
SSKSRAAPSPQEALVRLRETEGML [E22G]	2.44
SSKSRAAPSPQEALVRLRETEWML [E22W]	1.71
SSKSRAAPSPQEALVRLRETEPML [E22P]	4.66
SSKSRAAPSPQEALVRLRETEDML [E22D]	2.14
SSKSRAAPSPQEALVRLRETEVML [E22V]	2.84
SSKSRAAPSPQEALVRLRETEQML [E22Q]	2.31
SSKSRAAPSPQEALVRLRETEIML [E22I]	2.92
ESKSRAAPSPQEALVRLRETEEML [S1E]	1.3
VSKSRAAPSPQEALVRLRETEEML [S1V]	3.02
NSKSRAAPSPQEALVRLRETEEML [S1N]	2.38
HSKSRAAPSPQEALVRLRETEEML [S1H]	1.97
SSKSGAAPSPQEALVRLRETEEML [R5G]	1.3
SSKSDAAPSPQEALVRLRETEEML [R5D]	2.36
SSKSLAAPSPQEALVRLRETEEML [R5L]	1.48
SSKSCAAPSPQEALVRLRETEEML [R5C]	1.78
SSKSTAAPSPQEALVRLRETEEML [R5T]	2.17
SEKSRAAPSPQEALVRLRETEEML [S2E]	1.86
SCKSRAAPSPQEALVRLRETEEML [S2C]	2.38

Variant	protein stability index
STKSRAAPSPQEALVRLRETEEML [S2T]	1.78
SAKSRAAPSPQEALVRLRETEEML [S2A]	2.44
SSKSRAAQSPQEALVRLRETEEML [P8Q]	1.95
SSKSRAALSPQEALVRLRETEEML [P8L]	2.46
SSKSRAANSPQEALVRLRETEEML [P8N]	2.54
SSKSRAACSPQEALVRLRETEEML [P8C]	1.87
SSKSRAAVSPQEALVRLRETEEML [P8V]	4
SSKSRAAWSPQEALVRLRETEEML [P8W]	2.56
SSKSRAAPSPQEALVRLAETEEML [R18A]	1.51
SSKSRAAPSPQEALVRLKETEEML [R18K]	2.15
SSKSRAAPSPQEALVRLLETEEML [R18L]	4.8
SSKSRAAPSPQEALVRLDETEEML [R18D]	5.46
SSKSRAAPSPQEALVRLEETEEML [R18E]	4.89
SSKSRAAPSPQEALVRLHETEEML [R18H]	5.68
SSKSRAAPSPQEALVRLQETEEML [R18Q]	2.57
SSKSRAAPSPQEALVRLPETEEML [R18P]	5.12
SSKSRAAPSPQEALVRLNETEEML [R18N]	1.8
SSKSRAAPSPQEALVRLYETEEML [R18Y]	2.45
SSKSRAAPSPQEALVRLSETEEML [R18S]	2.17
SSKSRAAPSPQEALVRLFETEEML [R18F]	1.83
